# Reference: FireProtDB (doi:10.1046/j.1432-1327.1999.00751.x)
# B1: Azurin wild type, P00282 (protein)
# chain: MLRKLAAVSLLSLLSAPLLAAECSVDIQGNDQMQFNTNAITVDKSCKQFTVNLSHPGNLPKNVMGHNWVLSTAADMQGVVTDGMASGLDKDYLKPDDSRVIAHTKLIGSGEKDSVTFDVSKLKEGEQYMFFCTFPGHSALMKGTLTLK
# Conditions: Pseudomonas aeruginosa (strain ATCC 15692 / DSM 22644 / CIP 104116 / JCM 14847 / LMG 12228 / 1C / PRS 101 / PAO1); pH 7.2; 20 °C; GdnHCl; CD + Fluorescence; Tris-HCl 50 mM; reversible: yes; whole UniProt chain shown
protein,measurement,value
B1,denaturant m value,3.3 kcal/mol/M
same,denaturant midpoint (higher = more stable),2.78 M
same,unfolding free energy,9.4 kcal/mol
